Results taken from patent US20240408238.

Tested on: AcrIIC5Smu

Substance: Nme1Cas9-Nme2Cas9PID chimera (Nme1Cas9 with its PID replaced by that of Nme2Cas9)
- in vitro DNA cleavage by the PID-swapped chimera in the presence of Acr (10-fold ratio; ~30x higher Cas9 concentration): No inhibition was observed by AcrIIC5Smu on this protein chimera
